US20250257142A1 (INVETX, published 2025)
Substitutions are numbered along the chain they refer to. In names and notes the source's numbering stands.

Legend:
[1] = target: canine IL-31 receptor alpha (IL-31RA) on canine DH-82 cells (canine); test: cell-based or functional assay
[2] = target: T1, extracellular domain of canine IL-31RA fused to murine IgG2A Fc (canine); test: SPR Biacore T200, antibody captured on anti-human IgG chip, canine IL-31RA-mFc as analyte, 1:1 model
T1 construct: also called Canine IL-31RA-murine IgG2A Fc; Canine IL-31RA-mFc
T1 chain: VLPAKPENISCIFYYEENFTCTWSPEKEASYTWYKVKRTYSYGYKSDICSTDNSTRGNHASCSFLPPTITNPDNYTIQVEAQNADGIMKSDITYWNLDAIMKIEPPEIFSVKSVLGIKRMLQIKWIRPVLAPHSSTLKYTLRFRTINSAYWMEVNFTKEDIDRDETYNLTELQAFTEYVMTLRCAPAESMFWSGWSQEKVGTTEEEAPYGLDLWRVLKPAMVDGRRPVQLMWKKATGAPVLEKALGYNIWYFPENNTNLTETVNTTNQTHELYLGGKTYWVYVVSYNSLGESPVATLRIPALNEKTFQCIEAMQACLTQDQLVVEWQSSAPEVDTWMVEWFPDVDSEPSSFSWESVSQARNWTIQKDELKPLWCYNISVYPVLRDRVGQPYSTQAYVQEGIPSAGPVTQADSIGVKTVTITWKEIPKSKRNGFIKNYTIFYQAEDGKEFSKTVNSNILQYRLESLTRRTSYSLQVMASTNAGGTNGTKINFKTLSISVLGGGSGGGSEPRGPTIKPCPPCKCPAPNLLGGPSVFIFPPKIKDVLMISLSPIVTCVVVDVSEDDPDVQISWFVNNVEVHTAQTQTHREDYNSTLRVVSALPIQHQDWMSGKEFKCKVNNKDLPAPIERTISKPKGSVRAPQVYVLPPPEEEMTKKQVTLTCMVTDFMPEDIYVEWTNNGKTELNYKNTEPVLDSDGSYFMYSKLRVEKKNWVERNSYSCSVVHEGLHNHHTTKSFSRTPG
Description: Canine IL-31RA-murine IgG2A Fc was generated by transiently transfecting pcDNA3.4 containing Sequence 3 into GenScript HD (High Density) CHO-S cells and purified with MabSelect SuRe LX chromatography. Further purification of the recombinant protein was completed using gel filtration with TSKgel G3000SWxi chromatography. […] Antibodies were flowed over the anti-human IgG sensor chip at a concentration of 1 μg/ml in 1×HBS-EP+ (Cytiva, BR100826) for 60 seconds at a flow rate of 10 μL/min. Canine IL-31RA-mFc (100 nM, 50 nM, 25 nM, 12.5 nM, 6.25 nM, […]) solutions in 1×HBS-EP+ was flown over the sensor chips for a contact time of 120 s and a dissociation time of 600 s at a flow rate of 30 μL/min. Double reference-subtracted sensorgrams were fitted to a 1:1 binding model using Biacore T200 Evaluation software and the kinetics of binding are shown below in Table 4.

[3] = target: T1, extracellular domain of canine IL-31RA …; test: SPR Biacore T200, antibody captured on anti-dog H+L chip, canine IL-31RA-mFc as analyte; relative affinity scale: *** 3 pM-100 pM, ** 101 pM-1 nM, * 1.1 nM-20 nM (avidity)
Description: (§1) Seven days following the transient transfection, the IgG in the conditioned medium was purified using MabSelect SuRe chromatography. The antibodies were buffer-exchanged into PBS, pH 7.4. The relative affinity of the variants was determined by SPR on a Biacore T200. The antibody was captured using a CM5 Series S chip amine coupled with an anti-dog H+L antibody (Jackson Immunoresearch). Canine IL-31RA-mFc (100 nM, 50 nM, 25 nM, 12.5 nM, 6.25 nM, 3.625 nM) solutions in 1×HBS-EP+ was flown over the sensor chip for a contact time of 120 s and a dissociation time of 600 s at a flow rate of […]. Double reference-subtracted sensorgrams were fitted to a 1:1 binding model using Biacore T200 Evaluation software. The canine IL-31RA antigen was both a dimer and aggregated so there were avidity effects with the measured affinities. […] Following the initial results with the single variants, a heavy chain containing the W53F variant and the M118I variant was synthesized and subcloned into pcDNA 3.4 (SEQ ID NO:18). The same methods as described above for expression and purification of the variant along with measuring the relative affinity were used to determine the relative affinity of the W53F/M118I heavy chain variant combined with the S95A light chain and the N94Q light chain variants.

[4] = target: T2, canine IL-31RA (20-308)-AviTag-His Tag, monomeric (canine); test: SPR Biacore T200, antibody captured on anti-dog H+L chip, monomeric canine IL-31RA (20-308) as analyte
T2 construct: Signal peptide (first 19 residues) left out; also called monomeric IL-31RA
T2 chain: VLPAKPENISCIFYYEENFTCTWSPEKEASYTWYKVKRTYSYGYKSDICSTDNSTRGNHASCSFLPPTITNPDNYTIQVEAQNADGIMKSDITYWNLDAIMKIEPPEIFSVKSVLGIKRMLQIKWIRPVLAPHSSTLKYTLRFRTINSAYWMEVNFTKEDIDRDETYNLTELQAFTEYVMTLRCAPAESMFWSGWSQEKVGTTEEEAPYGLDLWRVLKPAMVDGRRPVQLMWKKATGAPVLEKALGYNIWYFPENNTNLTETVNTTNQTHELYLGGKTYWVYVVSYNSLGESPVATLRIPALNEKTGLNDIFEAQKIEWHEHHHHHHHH
Description: as §1, with “The” for “Seven days following the transient transfection, the IgG in the conditioned medium was purified using MabSelect SuRe chromatography. The antibodies were buffer-exchanged into PBS, pH 7.4. The relative affinity of the variants was determined by SPR on a Biacore T200. The”
To reduce the avidity effects from using the canine IL-31RA-mouse Fc construct in SPR experiments, a monomeric construct was generated which contains amino acids 20-308 of the canine IL-31IRA extracellular domain (SEQ ID NO:28). This construct has the AviTag sequence ([…] (SEQ ID NO:51)) followed by an 8×His(SEQ ID NO:52) tag to facilitate purification. GenScript HD (High Density) CHO-S cells were transiently transfected with pcDNA 3.4 containing Sequence 28 and purified with HisTrap FF chromatography. Further purification of the recombinant protein was completed using gel filtration with Cytiva HiLoad 26/600 Superdex chromatography to isolate the monomeric IL-31RA species. […] These clones were evaluated in an SPR experiment using the same conditions as described for the caninized clones except the analyte is canine IL-31RA (20-308).

[5] = target: T1, extracellular domain of canine IL-31RA …; test: SPR Biacore T200, antibody captured on anti-dog H+L chip, canine IL-31RA-mFc as analyte; relative affinity scale: *** 3 pM-100 pM, ** 101 pM-1 nM, * 1.1 nM-20 nM (avidity)
Description: as §1, with “The different heavy and light chain combinations were co-transfected into ExpiCHO cells using the ExpiCHO transfection kit (ThermoFisher; Cat. #A29133). Seven” for “Seven”

B1: Clone 186 (human antibody 186, human IgG1) (antibody, V domains shown)
VH: EVQLLESGGGLIQPGGSLRLSCGASGFTFSSYAMSWVRQAPGKGLEWVSAISGSGNSTYYADSVKGRFTISRDNSKNTLYLQMNSLRAEDTAVYYCATQVVYYFKMDVWGKGTTVTVSS
VL: EIVMTQSPATLSVSPGERATLSCRASQSVSSNLAWYRQKPGQAPRLLIYGASTRATGIPARFSGSGSGTEFTLTISSLQSEDFAVYYCQQYYNWPPFTFGPGTKLDIKR
For B1, the “IC50 (read off the curve)” value [1] was ~10 nM, the Kd [2] was 1.81 nM and the koff [2] was 0.000118 s⁻¹. It also gave a kon [2] of 65200 M⁻¹ s⁻¹.

B2: Clone 109 (human antibody 109, human IgG1) (antibody, V domains shown)
VH: EVQLVESGGGVVRPGGSLRLSCAASGFTFDDYGMSWVRQIPGRGLEWVSGINWAGGTIGYADSVKGRFTVSRDDANNSLYLQMNSLRAEDTALYLCARESPLRLGDLGGDYFYYYYYMDVWGKGTTVTVSS
VL: EIVLTQSPGTLSLSPGERATLSCRASQSVSSRYLVWYQQKPGQAPRLLIYGTSSRATGIPDRFSGSGSGTDFTLTISRLEPEDFAVYYCQQYDNSPRTFGQGTKVEIKR
For B2, the “IC50 (read off the curve)” value [1] was ~4 nM, the Kd [2] was 0.506 nM and the koff [2] was 0.000108 s⁻¹. The kon [2] was 214000 M⁻¹ s⁻¹.

B3: 186-95 heavy chain S57A variant with wild-type light chain (antibody, V domains shown)
VH: EVQLVESGGDLVKPGGSLRLSCVASGFTFSSYAMSWVRQAPGKGLQWVSAISGSGNATYYADAVKGRFTISRDNAKNTLYLQMNSLRAEDTAVYYCATQVVYYFKMDVWGQGTLVTVSS
VL: EIVMTQSPGSLAGSAGESVSINCKSSQSVSSNLAWYQQKPGERPKLLIYGASTRASGVPARFSSSGSGTDFTLTINNLQAEDVGDYYCQQYYNWPPFTFGQGTKLEIKR
notes: Canine IgGB/kappa; signal peptides left out; also called S57A / Wild-type
B3: binds [3].

B4: 186-95_QLF (186-95 containing the N56Q, M106L, and W94F variants) (antibody, V domains shown)
VH: B3 VH with N56Q, A57S, M106L
VL: B3 VL with W94F
notes: Canine IgGB/kappa; signal peptides left out; also called N56Q-M106L / W94F
A Kd [4] of 2.31 nM, a koff [4] of 0.000161 s⁻¹ and a kon [4] of 69800 M⁻¹ s⁻¹ were found for B4 in this work. B4: binds [3].

B5: caninized antibody clone 186-95 (antibody, V domains shown)
VH: B3 VH with A57S
VL: B3 VL
notes: Canine IgGB and canine kappa constant domains
B5: binds [3].

B6: 186-95 wild-type heavy chain with light chain W94Y variant (antibody, V domains shown)
VH: B3 VH with A57S
VL: B3 VL with W94Y
notes: Canine IgGB/kappa; signal peptides left out; also called Wild-type / W94Y
B6: binds [3].

B7: 186-95 wild-type heavy chain with light chain W94F variant (antibody, V domains shown)
VH: B3 VH with A57S
VL: B3 VL with W94F
notes: Canine IgGB/kappa; signal peptides left out; also called Wild-type / W94F
B7: binds [3].

B8: 109-49_IA (109-49 containing the M118I and S95A variants) (antibody, V domains shown)
VH: EVQLVESGGDLVKPGGSLRLSCVASGFTFDDYGMSWVRQAPGKGLQWVSGINWAGGTIGYADAVKGRFTISRDNARNTVYLQMNSLRAEDTAVYYCARESPLRLGDLGGDYFYYYYYIDVWGQGTLVTVSS
VL: EVVMIQTPLSLSVSPGEPASISCRASQSVSSRYLVWYLQKPGQSPQLLIYGTSSRATGVSDRFSGSGSGTDFTLRISRVEAEDVGVYYCQQYDNAPRTFGQGTKVEIKR
notes: Canine IgGB/kappa; signal peptides left out; also called M118I / S95A
A Kd [4] of 1.31 nM, a koff [4] of 7.09e-05 s⁻¹ and a kon [4] of 54400 M⁻¹ s⁻¹ were found for B8 in this work. For the same binder, the “relative affinity (apparent KD by SPR)” value [5] was 0.003 to 0.1 nM.
